Reference: patent publication EP1086117B1

What was measured:
[1] = molecular target: human motilin receptor spliced form A (MTL-R1A) (human); assay: direct radioligand binding on cell membranes of MTL-R1A transfected cells
[2] = molecular target: human motilin receptor spliced form A (MTL-R1A) (human); assay: cell-based or functional assay
[3] = molecular target: human motilin receptor spliced form A (MTL-R1A) (human); assay: displacement of [125I] human motilin from crude membranes of MTL-R1A transfected HEK-293/aeq17 cells

Q: With “[125I]-Tyr7-human motilin (from UniProt P12872 26-47) (peptide)” as the substance, how does the Bmax (fmol/mg protein) [1] read?
A: 240

Q: What about the Kd [1] of the same substance?
A: 0.1 nM

Q: Which Aequorin Assay (EC50 nM) [2] does the source give for “canine motilin (from UniProt P19863 1-22) (peptide)” here?
A: 4.4 nM

Q: And the IC50 [3]?
A: 0.2 nM

Q: With “1-12 MTL (from UniProt P12872 26-37) (peptide)” as the substance, how does the Aequorin Assay (EC50 nM) [2] read?
A: 72 nM

Q: What about the IC50 [3] of the same substance?
A: 14 nM

Q: How did the Aequorin Assay (EC50 nM) [2] turn out when “10-22 MTL (from UniProt P12872 35-47) (peptide)” was run?
A: > 10000 nM

Q: What about the IC50 [3] of the same substance?
A: 1100 nM

Q: For “human motilin (MTL) (from UniProt P12872 26-47) (peptide)”, which Aequorin Assay (EC50 nM) [2] is on record?
A: 2.1 nM

Q: What about the bioluminescent response, aequorin assay, 100 nM peptide (fold over background) [2] of the same substance?
A: > 4

Q: What about the IC50 [3] of the same substance?
A: 0.5 nM

Q: With “1-13 MTL (from UniProt P12872 26-38) (peptide)” as the substance, how does the Aequorin Assay (EC50 nM) [2] read?
A: 3.8 nM

Q: And the IC50 [3]?
A: 0.9 nM

Q: What does the source list for “1-11 MTL (from UniProt P12872 26-36) (peptide)”?
A: Aequorin Assay (EC50 nM) [2]: 138 nM; IC50 [3]: 127 nM

Q: With “Leu 13 MTL (from UniProt P12872 26-115) (peptide)” as the substance, how does the Aequorin Assay (EC50 nM) [2] read?
A: 3.9 nM

Q: And the IC50 [3]?
A: 0.2 nM

Q: With “1-19 MTL (from UniProt P12872 26-44) (peptide)” as the substance, how does the Aequorin Assay (EC50 nM) [2] read?
A: 4.1 nM

Q: What about the IC50 [3] of the same substance?
A: 0.3 nM
